Data published in doi:10.1101/851261 (2019).
Positions of bridges follow the written chain, without caps; N, C: chain ends. No end group written: not given here.

T1: AjKissR1 (Apostichopus japonicus)
T1 chain: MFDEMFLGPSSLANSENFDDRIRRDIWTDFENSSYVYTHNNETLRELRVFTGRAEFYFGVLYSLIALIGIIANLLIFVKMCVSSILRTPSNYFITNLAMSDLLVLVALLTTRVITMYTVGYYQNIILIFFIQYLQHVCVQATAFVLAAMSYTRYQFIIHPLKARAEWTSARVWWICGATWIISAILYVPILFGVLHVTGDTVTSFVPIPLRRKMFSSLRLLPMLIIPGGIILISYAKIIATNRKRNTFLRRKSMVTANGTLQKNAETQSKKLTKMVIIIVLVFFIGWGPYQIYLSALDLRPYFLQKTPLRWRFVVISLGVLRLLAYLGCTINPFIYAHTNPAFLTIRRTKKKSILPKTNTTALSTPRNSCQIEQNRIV

T2: AjKissR2 (Apostichopus japonicus)
T2 chain: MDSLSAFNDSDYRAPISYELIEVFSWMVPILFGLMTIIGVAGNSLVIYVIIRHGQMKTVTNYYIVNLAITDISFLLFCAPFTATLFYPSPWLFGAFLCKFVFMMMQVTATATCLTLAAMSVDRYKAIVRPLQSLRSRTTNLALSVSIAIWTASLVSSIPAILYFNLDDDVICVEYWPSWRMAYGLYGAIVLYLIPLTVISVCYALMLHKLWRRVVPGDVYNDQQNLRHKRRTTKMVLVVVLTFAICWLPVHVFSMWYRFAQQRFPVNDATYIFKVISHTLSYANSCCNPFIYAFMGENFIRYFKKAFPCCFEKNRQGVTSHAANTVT


Key:
AjKissR1 = molecular target: T1, AjKissR1; test: FACS; competition with 1.0 uM FITC-AjKiss1a
AjKissR2 = molecular target: T2, AjKissR2; test: FACS; competition with 1.0 uM FITC-AjKiss1a

| Binder | IC50 (AjKissR1) [nM] | IC50 (AjKissR2) [nM] |
| --- | --- | --- |
| AGSLDCLEASCEDVERRGRQPNRNAHYRTLPF-NH2 (disulfide 6-11 (inferred)) [AjKiss1a] | 568 |  |
| SAVKNKNKSRARPPLLPF-NH2 [AjKiss1b] |  | 1250 |
